Test results from the supplement of paper PMC10567573.

B1: ETS1 (parent)
chain: FSEPSFITESYQTLHPISSEELLS

Variants of: B1
Experiment: protein stability index of a GFP-peptide fusion (GPS, HEK-293T) (PSI 1-6); higher = more stable
Conditions: c terminus: a fixed tail appended
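Note: lentivirally expressed fusions sorted by FACS into six bins by GFP to DsRed ratio, PSI derived from sequencing read proportions per bin multiplied by bin number.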

Variant | protein stability index
Q12C | 2.24
Q12L | 2.45
Q12S | 1.88
Q12N | 2.26
Q12H | 2.05
Q12V | 1.62
Q12D | 2.52
Q12R | 1.92
Q12M | 1.95
Q12A | 2.1
Q12T | 1.59
Q12E | 2.27
Q12G | 1.84
Q12W | 2.42
Q12P | 1.91
Q12K | 1.85
Q12F | 1.98
Q12Y | 1.56
Q12I | 1.58
S19M | 2.19
S19W | 2
S19Q | 2.21
S19C | 1.78
S19V | 1.84

Variant | protein stability index
S19G | 1.99
S19R | 2.24
S19P | 2.11
S19A | 1.7
S19E | 2.46
S19I | 2.13
S19Y | 1.7
S19N | 2.35
S19T | 2.21
S19H | 1.94
S19F | 1.88
S19D | 2.31
S19K | 1.72
S19L | 1.81
F6S | 4.2
F6N | 4.57
F6T | 4.34
F6Q | 4.76
F6Y | 2.74
F6R | 4.13
F6V | 3.23
F6P | 4.26
F6W | 2.27
T8A | 2.29

Variant | protein stability index
T8H | 2.04
T8Q | 2.59
T8P | 3.5
T8Y | 2.17
T8E | 3.4
T8G | 2.05
T8M | 1.78
T8S | 2.38
T8C | 2.22
T8I | 1.98
T8K | 2.32
T8N | 2.91
T8D | 3.47
T8F | 1.95
T8R | 2.12
T8L | 1.92
T8V | 1.36
P16L | 3.29
P16G | 2.19
P16E | 1.95
P16F | 2.08
P16S | 2.21
P16H | 1.81
P16N | 1.89

Variant | protein stability index
P16W | 1.17
P16I | 1.6
P16T | 1.9
P16Y | 1.67
P16D | 1.81
P16C | 2.07
P16R | 1.69
P16K | 1.88
P16A | 1.68
P16V | 2.16
P16Q | 2.13
P16M | 1.47
H15P | 2.27
H15K | 2.33
H15W | 1.67
H15R | 2.82
H15D | 2.48
H15Y | 1.51
H15G | 1.75
H15Q | 2.29
H15L | 1.99
H15E | 2.12
H15N | 1.71
H15A | 2.27

Variant | protein stability index
H15M | 1.96
H15V | 2.49
H15T | 2.38
H15I | 2.03
H15F | 1.95
H15S | 1.91
H15C | 2.17
E20A | 1.92
E20T | 2.08
E20I | 1.78
E20C | 1.8
E20R | 2.08
E20V | 2.04
E20W | 1.61
E20K | 1.82
E20H | 2.14
E20G | 1.62
E20Q | 2.12
E20L | 1.95
E20F | 1.77
E20P | 1.73
E20M | 2.28
E20S | 2.11
E20D | 1.63

Variant | protein stability index
E20Y | 1.72
E20N | 1.7
T13G | 1.9
T13V | 2.21
T13F | 1.53
T13S | 2.35
T13C | 1.67
T13D | 2.23
T13Y | 1.93
T13W | 2.54
T13K | 1.93
T13Q | 2.4
T13I | 1.93
T13H | 1.62
T13E | 2.07
T13L | 1.99
T13M | 1.28
T13R | 1.61
T13A | 2.16
T13N | 1.68
T13P | 2.11
L23Y | 1.78
L23D | 2.47
L23Q | 2.59

Variant | protein stability index
L23I | 1.52
L23A | 2.57
L23C | 1.97
L23T | 2.29
L23R | 2.16
L23S | 2.07
L23F | 2.38
L23G | 1.98
L23K | 2.83
L23H | 2.61
L23W | 1.81
L23M | 2.03
L23V | 2.06
L23P | 2.14
L23N | 2.31
L23E | 2.44
S10K | 2.25
S10F | 1.7
S10N | 1.99
S10G | 1.72
S10I | 1.86
S10M | 2.02
S10W | 1.5
S10P | 2.62

Variant | protein stability index
S10C | 1.53
S10L | 2.52
S10A | 1.74
S10Y | 1.74
S10R | 2.16
S10H | 2.06
S10Q | 2.35
S10D | 2.82
S10E | 3
S10T | 2.15
S10V | 2.52
S18E | 2.18
S18D | 2.33
S18F | 1.79
S18P | 2.08
S18N | 2.04
S18Y | 2.24
S18Q | 2.3
S18W | 1.38
S18K | 1.49
S18A | 1.93
S18V | 2.13
S18L | 1.99
S18C | 2.2

Variant | protein stability index
S18I | 1.83
S18T | 1.97
S18H | 2.35
S18G | 1.8
S18M | 2
S18R | 2.19
E21Q | 2.06
E21T | 2
E21H | 2.24
E21M | 2.1
E21K | 1.84
E21I | 1.81
E21N | 1.85
E21L | 1.93
E21S | 1.52
E21Y | 1.49
E21P | 1.94
E21V | 2.2
E21C | 1.79
E21A | 1.53
E21R | 1.96
E21F | 1.99
E21G | 1.91
E21D | 1.74

Variant | protein stability index
E21W | 1.99
L14T | 2.5
L14G | 2.19
L14W | 2.66
L14A | 2.08
L14N | 2.08
L14I | 1.94
L14V | 2.09
L14C | 1.93
L14E | 2.33
L14F | 1.74
L14H | 2.35
L14M | 1.88
L14R | 2.07
L14P | 2.1
L14K | 2.19
L14Y | 1.55
L14D | 2.44
L14Q | 2.48
L14S | 2.44
I17W | 2.06
I17L | 2.45
I17A | 2.33
I17R | 2.59

Variant | protein stability index
I17N | 2.34
I17M | 1.78
I17Q | 2.31
I17T | 2.78
I17H | 1.76
I17F | 1.84
I17S | 2.14
I17E | 2.39
I17P | 2.34
I17V | 2.14
I17K | 2.36
I17C | 1.74
I17Y | 2.03
I17D | 2.12
I17G | 1.81
I7L | 2.19
I7D | 4.01
I7N | 4.24
I7R | 3.17
I7V | 2.21
I7M | 2.31
I7T | 3.29
I7E | 4.03
I7Q | 3.83

Variant | protein stability index
I7H | 2.42
I7S | 3.55
I7C | 2.03
I7Y | 2.82
I7A | 1.59
I7W | 2.33
I7P | 3.09
I7K | 3.73
I7G | 2.33
I7F | 1.68
L22R | 2.19
L22W | 1.62
L22E | 2.67
L22Y | 2.04
L22V | 2.31
L22G | 2.03
L22P | 2.42
L22H | 2.71
L22A | 2.04
L22K | 2.55
L22C | 1.97
L22D | 2.16
L22Q | 2.19
L22S | 2

Variant | protein stability index
L22N | 2.33
L22F | 2.01
L22I | 2.2
L22T | 1.97
L22M | 2
S24D | 2.15
S24A | 2.02
S24C | 1.5
E9S | 2.25
E9I | 2.57
E9H | 2
E9N | 1.62
E9A | 1.76
E9D | 1.88
E9C | 2.25
E9V | 2.05
E9Q | 2.02
E9M | 2.32
E9K | 1.97
E9F | 2.58
E9R | 2.24
E9L | 1.5
E9G | 1.88
E9T | 1.94

Variant | protein stability index
E9P | 1.75
E9W | 2.06
E9Y | 1.77
Y11A | 2.21
Y11L | 1.71
Y11G | 2.57
Y11K | 2.81
Y11P | 3.21
Y11E | 2.95
Y11S | 2.2
Y11N | 2.56
Y11F | 1.73
Y11Q | 2.57
Y11D | 2.96
Y11M | 2.02
Y11T | 2.3
Y11I | 2.04
Y11H | 2.25
Y11R | 1.82
Y11V | 1.78
Y11W | 1.34
Y11C | 1.67
